# Experimental data published in the Human Domainome abundance scans (Beltran et al. 2025).
# ± gives the uncertainty stated by the source.
# B1: Zinc finger homeobox protein 4, residues 2562 to 2617; numbered along this chain, Q86UP3 (parent)
# chain: RLRTTITPEQLEILYEKYLLDSNPTRKMLDHIAREVGLKKRVVQVWFQNTRARERK
# Variants of: B1
# Assay: abundance fitness (aPCA) (normalised: wild type 0, dead -1); higher = more abundant; growth selection in yeast, the domain comes from the species named
# Conditions: Homo sapiens
row,Variant,abundance fitness
1,RLRTTITPEQLEILYEKYLLDSNPTRKMLDHIAREVGLVKRVVQVWFQNTRARERK [K39V],-0.01 ± 0.096
2,RLRTTITPEQLEILYEKYLLDSNPTRKMLDHIAREVGLQKRVVQVWFQNTRARERK [K39Q],0.032 ± 0.14
3,RLRTTITPEQLEILYEKYLLDSNPTRKMLDHIAREVGLMKRVVQVWFQNTRARERK [K39M],-0.405 ± 0.26
4,RLRTTITPEQLEILYEKYLLDSNPTRKMLDHIAREVGLPKRVVQVWFQNTRARERK [K39P],0.196 ± 0.12
5,RLRTTITPEQLEILYEKYLLDSNPTRKMLDHIAREVGLKKWVVQVWFQNTRARERK [R41W],-0.102 ± 0.071
6,RLRTTITPEQLEILYEKYLLDSNPTRKMLDHIAREVGLKKLVVQVWFQNTRARERK [R41L],0.115 ± 0.08
7,RLRTTITPEQLEILYEKYLLDSNPTRKMLDHIAREVGLKKNVVQVWFQNTRARERK [R41N],0.248 ± 0.1
8,RLRTTITPEQLEILYEKYLLDSNPTRKMLDHIAREVGLKKPVVQVWFQNTRARERK [R41P],0.246 ± 0.093
9,RLRTTITPEQLEILYEKYLLDSNPTRKMLDHIAREVGLKKVVVQVWFQNTRARERK [R41V],0.013 ± 0.086
10,RLRTTITPEQLEILYEKYLLDSNPTRKMLDHIAREVGLKKTVVQVWFQNTRARERK [R41T],0.213 ± 0.088
11,RLRTTITPEQLEILYEKYLLDSNPTRKMLDHIAREVGLKKSVVQVWFQNTRARERK [R41S],0.306 ± 0.067
12,RLRTTITPEQLEILYEKYLLDSNPTRKMLDHIAREVGLKKAVVQVWFQNTRARERK [R41A],0.257 ± 0.062
13,RLRTTITPEQLEILYEKYLLDSNPTRKMLDHIAREVGLKKEVVQVWFQNTRARERK [R41E],0.517 ± 0.098
14,RLRTTITPEQLEILYEKYLLDSNPTRKMLDHIAREVGLKKDVVQVWFQNTRARERK [R41D],0.001 ± 0.19
15,RLRTTITPEQLEILYEKYLLDSNPTRKMLDHIAREVGLKKCVVQVWFQNTRARERK [R41C],0.068 ± 0.075
16,RLRTTITPEQLEILYEKYLLDSNPTRKMLDHIAREVGLKKIVVQVWFQNTRARERK [R41I],-0.038 ± 0.16
17,RLRTTITPEQLEILYEKYLLDSNPTRKMLDHIAREVGLKKQVVQVWFQNTRARERK [R41Q],0.476 ± 0.11
18,RLRTTITPEQLEILYEKYLLDSNPTRKMLDHIAREVGLKKGVVQVWFQNTRARERK [R41G],0.264 ± 0.053
19,RLRTTITPEQLEILYEKYLLDSNPTRKMLDHIAREVGLKKHVVQVWFQNTRARERK [R41H],0.163 ± 0.069
20,RLRTTITPEQLEILYEKYLLDSNPTRKMLDHIAREVGLKKFVVQVWFQNTRARERK [R41F],-0.044 ± 0.089
21,RLRTTITPEQLEILYEKYLLDSNPTRKMLDHIAREWGLKKRVVQVWFQNTRARERK [V36W],-0.638 ± 0.11
22,RLRTTITPEQLEILYEKYLLDSNPTRKMLDHIARENGLKKRVVQVWFQNTRARERK [V36N],-0.415 ± 0.086
23,RLRTTITPEQLEILYEKYLLDSNPTRKMLDHIARESGLKKRVVQVWFQNTRARERK [V36S],0.019 ± 0.068
24,RLRTTITPEQLEILYEKYLLDSNPTRKMLDHIAREMGLKKRVVQVWFQNTRARERK [V36M],-0.134 ± 0.089

row,Variant,abundance fitness
1,RLRTTITPEQLEILYEKYLLDSNPTRKMLDHIARERGLKKRVVQVWFQNTRARERK [V36R],-1.03 ± 0.14
2,RLRTTITPEQLEILYEKYLLDSNPTRKMLDHIAREIGLKKRVVQVWFQNTRARERK [V36I],-0.398 ± 0.11
3,RLRTTITPEQLEILYEKYLLDSNPTRKMLDHIARELGLKKRVVQVWFQNTRARERK [V36L],-0.121 ± 0.085
4,RLRTTITPEQLEILYEKYLLDSNPTRKMLDHIAREKGLKKRVVQVWFQNTRARERK [V36K],-0.726 ± 0.19
5,RLRTTITPEQLEILYEKYLLDSNPTRKMLDHIAREGGLKKRVVQVWFQNTRARERK [V36G],-0.812 ± 0.1
6,RLRTTITPEQLEILYEKYLLDSNPTRKMLDHIAREHGLKKRVVQVWFQNTRARERK [V36H],-0.418 ± 0.23
7,RLRTTITPEQLEILYEKYLLDSNPTRKMLDHIAREFGLKKRVVQVWFQNTRARERK [V36F],-0.623 ± 0.26
8,RLRTTITPEQLEILYEKYLLDSNPTRKMLDHIAREYGLKKRVVQVWFQNTRARERK [V36Y],-0.586 ± 0.29
9,RLRTTITPEQLEILYEKYLLDSNPTRKMLDHIAREPGLKKRVVQVWFQNTRARERK [V36P],-0.649 ± 0.13
10,RLRTTITPEQLEILYEKYLLDSNPTRKMLDHIAREVGPKKRVVQVWFQNTRARERK [L38P],-0.787 ± 0.12
11,RLRTTITPEQLEILYEKYLLDSNPTRKMLDHIAREVGIKKRVVQVWFQNTRARERK [L38I],-0.025 ± 0.26
12,RLRTTITPEQLEILYEKYLLDSNPTRKMLDHIAREVGSKKRVVQVWFQNTRARERK [L38S],-0.846 ± 0.091
13,RLRTTITPEQLEILYEKYLLDSNPTRKMLDHIAREVGCKKRVVQVWFQNTRARERK [L38C],-0.301 ± 0.12
14,RLRTTITPEQLEILYEKYLLDSNPTRKMLDHIAREVGKKKRVVQVWFQNTRARERK [L38K],-0.254 ± 0.12
15,RLRTTITPEQLEILYEKYLLDSNPTRKMLDHIAREVGAKKRVVQVWFQNTRARERK [L38A],-0.508 ± 0.073
16,RLRTTITPEQLEILYEKYLLDSNPTRKMLDHIAREVGRKKRVVQVWFQNTRARERK [L38R],-0.818 ± 0.07
17,RLRTTITPEQLEILYEKYLLDSNPTRKMLDHIAREVGTKKRVVQVWFQNTRARERK [L38T],-0.933 ± 0.27
18,RLRTTITPEQLEILYEKYLLDSNPTRKMLDHIAREVGWKKRVVQVWFQNTRARERK [L38W],-0.884 ± 0.17
19,RLRTTITPEQLEILYEKYLLDSNPTRKMLDHIAREVGEKKRVVQVWFQNTRARERK [L38E],-0.488 ± 0.16
20,RLRTTITPEQLEILYEKYLLDSNPTRKMLDHIAREVGGKKRVVQVWFQNTRARERK [L38G],-0.915 ± 0.08
21,RLRTTITPEQLEILYEKYLLDSNPTRKMLDHIAREVGDKKRVVQVWFQNTRARERK [L38D],-0.718 ± 0.27
22,RLRTTITPEQLEILYEKYLLDSNPTRKMLDHIAREVGMKKRVVQVWFQNTRARERK [L38M],-0.132 ± 0.072
23,RLRTTITPEQLEILYEKYLLDSNPTRKMLDHIAREVGQKKRVVQVWFQNTRARERK [L38Q],-0.755 ± 0.13
